Laboratory results taken from patent US20190263896A1 (UNIVERSITY OF ZURICH, published 2019).

Columns and labels:
[1] = biological target: T1, artificial amyloid fibrils prepared from synthetic Abeta1-42 peptides (UniProt P05067 672-713); test: ELISA, fibrillar Abeta1-42 coated on the plate, antibody 0.1pM to 100nM [right panel]
T1 construct: domain: Abeta1-42; Fibrillar assembly of many copies; also called Abeta1-42 fibrils; synthetic Abeta fibrils

[2] = biological target: T2, recombinant human NI-101.11 antibody; test: competition ELISA: NI-101.11 (1nM) pre-incubated with the peptide at 10 nM to 10 µM, then binding to the coated plate (the coat is not named) [right panel]
T2 construct: also called human antibody against brain beta-amyloid

[3] = biological target: T3, synthetic Abeta1-42 peptide (UniProt P05067 672-713); test: ELISA, synthetic Abeta1-42 peptide coated on the plate
T3 construct: domain: Abeta1-42; also called linear synthetic Abeta1-42 monomers

[4] = biological target: T4, monomeric synthetic Abeta (UniProt P05067 672-713); test: ELISA, monomeric synthetic Abeta coated on the plate, antibody titrated
T4 construct: also called monomeric Abeta; linear monomeric Abeta peptide

B1: recombinant human antibody NI-101.13A (antibody, V domains shown)
VH: QVQLQESGPGLVKPSETLSLTCTVSGGSISRRSYYWGWIRQSPGKGLEWSGSIHYSGSTYYNPSLKSRVTISVDTSKNQFSLKLSSVTAADTAVYYCARSRWGSSWVFDYWGQGTLVTVSS
VL: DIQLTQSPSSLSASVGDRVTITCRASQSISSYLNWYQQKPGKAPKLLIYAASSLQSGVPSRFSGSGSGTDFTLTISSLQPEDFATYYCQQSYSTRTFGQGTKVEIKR
- binding result [1]: binds

B2: recombinant human antibody NI-101.13B (antibody, V domains shown)
VH: B1 VH
VL: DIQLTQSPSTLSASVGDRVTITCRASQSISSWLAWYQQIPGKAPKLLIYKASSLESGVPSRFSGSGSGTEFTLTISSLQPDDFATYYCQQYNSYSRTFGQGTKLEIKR
- binding result [1]: binds

B3: linear synthetic N-terminal Abeta-derived polypeptide representing positions 1 to 16 (peptide)
peptide: DAEFRHDSGYEVHHQK
notes: domain: Abeta1-16; the numbers count on the Abeta peptide; also called Abeta1-16; monomeric Abeta1-16
- binding result [2]: no binding (tested: 10 µM)

B4: recombinant NI-101.12 (antibody, V domains shown)
VH: EVQLVESGPGLVKPAETLSLTCTVSGGSIRSGSICWYWIRQPPGKGLEWIGYFCYSGATFYTPSLRGRLTISVDASKNQLSLSLSSVTAADTAVYYCARRAGENSGGIEPYYGMDVWGQGTTVTVSS
VL: EIVLTQSPSSLSASIGDRVTITCRASESINKYVNWYQQKPGKAPKLLIYAASSLQSGAPSRVSGSGFGRDFSLTISGLQAEDFGAYFCQQSYSAPYTFGQGTKVEIKR
- binding result [3]: binds

B5: control antibody 22C4 (antibody, V domains shown)
VH: QVQLQQSGPELVKPGASVKISCKTSGYTFTEYTMHWVKQSHGKSLEWIGGVNPYNDNTSYIRKLQGKVTLTVDRSSSTAYMELRSLTSEDSAVYFCARYGGLRPYYFPMDFWGQGTSVTVSS
VL: DIVLTQSPAILSASPGEKVTLTCRASSSVNYMHWYQQKPGSPPKAWIYATSNLASGVPDRFSASGSGTSYSLTISRVEAEDAATYYCQQWRTNPPTFGAGTKLELK
- EC50 (read off the curve) [4]: ~1 nM
